Experiment [1] has as its target T1, recombinant human complement factor H (CFH), isolated from moss (human, UniProt P08603 19-1231).
T1 chain: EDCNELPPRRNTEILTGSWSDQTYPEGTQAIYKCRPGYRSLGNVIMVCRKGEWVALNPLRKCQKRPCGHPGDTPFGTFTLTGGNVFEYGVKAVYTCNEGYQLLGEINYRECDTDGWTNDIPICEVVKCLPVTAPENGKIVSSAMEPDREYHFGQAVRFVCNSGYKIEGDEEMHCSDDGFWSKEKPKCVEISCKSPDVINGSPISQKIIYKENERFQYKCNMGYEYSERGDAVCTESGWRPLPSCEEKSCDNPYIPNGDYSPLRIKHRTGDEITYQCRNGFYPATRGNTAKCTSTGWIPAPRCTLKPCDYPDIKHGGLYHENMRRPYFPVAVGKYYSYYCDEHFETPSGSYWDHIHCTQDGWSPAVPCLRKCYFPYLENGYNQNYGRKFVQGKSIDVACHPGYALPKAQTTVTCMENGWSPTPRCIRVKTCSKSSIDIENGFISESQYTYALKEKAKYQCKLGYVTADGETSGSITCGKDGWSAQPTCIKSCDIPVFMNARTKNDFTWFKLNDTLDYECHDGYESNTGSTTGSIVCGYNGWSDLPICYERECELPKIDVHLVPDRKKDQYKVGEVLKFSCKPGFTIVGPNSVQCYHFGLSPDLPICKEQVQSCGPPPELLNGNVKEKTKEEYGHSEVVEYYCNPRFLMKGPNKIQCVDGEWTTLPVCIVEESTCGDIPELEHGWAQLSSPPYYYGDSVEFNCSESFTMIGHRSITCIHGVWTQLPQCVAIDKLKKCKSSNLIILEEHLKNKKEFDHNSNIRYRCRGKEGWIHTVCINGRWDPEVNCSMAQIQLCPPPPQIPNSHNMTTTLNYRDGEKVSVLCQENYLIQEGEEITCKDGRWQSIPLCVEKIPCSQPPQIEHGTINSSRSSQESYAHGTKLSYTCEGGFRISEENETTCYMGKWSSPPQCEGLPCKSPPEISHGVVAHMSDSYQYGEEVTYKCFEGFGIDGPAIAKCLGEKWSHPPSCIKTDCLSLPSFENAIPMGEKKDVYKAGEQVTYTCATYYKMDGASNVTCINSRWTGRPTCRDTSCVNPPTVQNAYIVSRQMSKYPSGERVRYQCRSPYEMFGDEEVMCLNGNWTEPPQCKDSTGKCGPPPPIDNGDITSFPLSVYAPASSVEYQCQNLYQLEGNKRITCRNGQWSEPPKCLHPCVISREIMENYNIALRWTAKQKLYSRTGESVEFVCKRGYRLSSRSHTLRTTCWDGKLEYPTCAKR
Briefly: BLI; steady state. In general terms: BLI is a label-free optical method that tracks binding on a fibre tip over time.

In experiment [2] the target is T1, recombinant human complement factor H …. The experiment can be described thus: SPR; steady state. On the technique in general: Surface plasmon resonance follows binding to a sensor surface in real time, without labels.

B1: CFH binding protein of SEQ ID NO: 5 (CID 209447) (designed binder)
chain: NAAEADDAQVSAAMEIIMLPNLTLEQAHSFIESLYRDPSVSKEVLGEAQKLNDSQAPK
For the molecule B1, the Kd (usually the constant that tells how readily two partners part at equilibrium) in experiment [1] was 120 nM.

B2: CFH binding protein of SEQ ID NO: 20 (CID 209864) (designed binder)
chain: IAAKFDEAQQAAFYEILHLPNLTELQRNHFIQTLRDDPSVSLWVLGLAQLLNDSQAPKIAAKFDEAQQHAFYTILHLENLTEEQRNAFIQSLRDDPSVSLEVLGEAIKLNISQAPK
Regarding B2, in experiment [1], the Kd came out at 421 nM.

B3: 209202 (protein)
chain: NAADLDEAQISAIFEIMDLPNLTWQQQEWFIDSLSDDPSVSKEVLGEAQKLNDSQAPK
On to B3, for which the dissociation constant Kd in experiment [2] is 35 nM.
